Patent US20130004981A1, “SYSTEM AND METHOD FOR SELECTING MOLECULE INTERACTING WITH PROTEIN PHOSPHATASE” (priority 2011, published 2013)

Tests used:
[1] = molecular target: T1, PP2A subunits B56γ3, Aα and Cα (Homo sapiens, UniProt P30153+P67775); assay: BiFC-based FRET fluorescence of PP2A holoenzyme assembly (YFPN-B56γ3+YFPC-Aα+CFP-Cα) in transfected NIH3T3 cells; assay type: cell-based; settings: NIH3T3 cells co-transfected with YFPN-B56γ3+YFPC-Aα+CFP-Cα plus test plasmid; FIG. 3
T1 construct: HA; Flag; expressed in transfected cells; host or cells: NIH3T3 (mouse embryonic fibroblast cell line)
Procedure: (§1) In the following embodiments of the present invention, NIH3T3 cells (mouse embryonic fibroblast cell line) was used, which was cultured in Dulbecco's modified Eagle's medium (DMEM) supplemented with 10% bovine serum (BS), 1% Penicillin (10 U/μl)/Streptomycin (10 μg/μl), and 1% L-Glutamine (200 mM). All of the reagents were available from GIBCO.
(§2) NIH3T3 cells were seeded into proper dishes one day before transfection. For example, 7×10^4 cells were seeded in each well of a 24-well plate; 10^6 cells were seeded in a 6 cm dish; and 3×10^6 cells were seeded in a 10 cm dish. […]
(§3) After 24 hrs, cells were washed with PBS buffer three times and fixed by 4% paraformaldehyde/0.025% glutaraldehyde for 15 ruin. […] The cells were observed by fluorescence microscopy (Zeiss, Axio observer Z1). […]
(§4) In the present embodiment, the plasmids of the following experimental groups were transfected into NIH3T3 cells with the aforementioned transfection process, and the cover glasses used in the present embodiment were prepared with the same process described in Embodiment 1. The cells were observed by fluorescence microscopy (Zeiss, Axio observer Z1), and the fluorescence and fluorescent efficiency generated from cells were programmed by Zeiss AxioVision complied with Youvan's method. […]

[2] = molecular target: T2, PP2A subunits Aα, Cα and B55β2 (Homo sapiens, UniProt P30153+P67775); assay: BiFC-based FRET fluorescence of PP2A holoenzyme assembly (YFPN-Aα+Cα-YFPC+B55β2-CFP) in transfected NIH3T3 cells; assay type: cell-based; settings: NIH3T3 cells co-transfected with YFPN-Aα+Cα-YFPC+B55β2-CFP plus test plasmid; FIG. 4
T2 construct: FLAG; HA (N); Flag; expressed in transfected cells; host or cells: NIH3T3 (mouse embryonic fibroblast cell line)
Procedure: as §1, §2, §3, §4

T1 sequence (P30153 whole entry): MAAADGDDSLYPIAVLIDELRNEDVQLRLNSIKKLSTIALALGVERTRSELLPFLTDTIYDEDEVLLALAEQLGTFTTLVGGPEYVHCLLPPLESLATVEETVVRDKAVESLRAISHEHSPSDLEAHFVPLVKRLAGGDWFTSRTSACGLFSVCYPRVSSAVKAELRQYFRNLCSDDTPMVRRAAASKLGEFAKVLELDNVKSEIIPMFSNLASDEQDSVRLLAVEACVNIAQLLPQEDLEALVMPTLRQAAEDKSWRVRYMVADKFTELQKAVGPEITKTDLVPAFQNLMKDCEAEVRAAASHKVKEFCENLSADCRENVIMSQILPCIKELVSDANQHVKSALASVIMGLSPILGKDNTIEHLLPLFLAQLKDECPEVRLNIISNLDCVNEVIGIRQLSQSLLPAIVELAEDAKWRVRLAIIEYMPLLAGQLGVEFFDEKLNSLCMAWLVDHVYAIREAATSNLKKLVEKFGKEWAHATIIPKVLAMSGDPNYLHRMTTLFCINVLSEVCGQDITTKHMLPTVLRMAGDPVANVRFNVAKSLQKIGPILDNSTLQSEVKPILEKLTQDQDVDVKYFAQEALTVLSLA
T1 sequence (P67775 whole entry): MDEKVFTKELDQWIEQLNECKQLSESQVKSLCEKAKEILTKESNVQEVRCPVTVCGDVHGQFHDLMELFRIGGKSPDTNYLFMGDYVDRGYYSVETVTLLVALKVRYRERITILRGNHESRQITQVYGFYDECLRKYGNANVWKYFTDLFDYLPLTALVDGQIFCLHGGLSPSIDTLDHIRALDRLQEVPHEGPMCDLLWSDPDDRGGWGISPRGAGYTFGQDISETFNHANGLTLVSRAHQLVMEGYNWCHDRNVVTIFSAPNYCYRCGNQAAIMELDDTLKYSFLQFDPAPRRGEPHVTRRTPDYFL
T2 sequence (P30153 whole entry): as the sequence (P30153 whole entry) above
T2 sequence (P67775 whole entry): as the sequence (P67775 whole entry) above

B1: ST: small T (SV40 small T antigen) expressed from pCMV5; may influence the association between the scaffold subunit and the regulatory subunit (protein, UniProt P03081 1-174, looked up)
Small t antigen: MDKVLNREESLQLMDLLGLERSAWGNIPLMRKAYLKKCKEFHPDKGGDEEKMKKMNTLYKKMEDGVKYAHQPDFGGFWDATEVFASSLNPGVDAMYCKQWPECAKKMSANCICLLCLLRMKHENRKLYRKDPLVWVDCYCFDCFRMWFGLDLCEGTLLLWCDIIGQTTYRDLKL
[1]
  fluorescence generated from cells (association between subunits A and B): did not generate any fluorescence
[2]
  fluorescence and efficiency generated from cells (association between subunits A and B): only generated weak fluorescence and efficiency
